Test results from US20230122364A1.

Target: prefusion conformation-stabilized SARS-CoV-2 spike ectodomain (S2Pecto) protein (SARS-CoV-2) (UniProt P0DTC2)
Experiment: ELISA on coated S2Pecto

## rCR3022 (recombinant form of the cross-reactive SARS-CoV SRBD mAb CR3022) (antibody)
  EC50: 0.0102 µg/mL
